This is an account of results in patent publication US5840530, “DNA encoding receptors for the beta-2 chain of human IL-12” (Hoffmann-La Roche Inc., dated 1998).

The Kd is the free concentration of one partner at which half of the binding sites on the other are occupied at equilibrium, for simple one-to-one binding. Read a high Kd as a looser complex.

Experiment [1] deals with T1, human IL-12 receptor beta1 and beta2 coexpressed on COS cells (cotransfection of the pEF-BOS beta1 plasmid … (human)). Kind of experiment: equilibrium binding of 125I-labeled IL-12 to COS cells cotransfected with beta1 and beta2 plasmids, Scatchard analysis, low affinity site. On the procedure: (§1) Recombinant human IL-12 was labeled with ^125I as follows. Iodogen was dissolved in chloroform. 0.05 mg aliquots of Iodogen were dried in 12×150 mm borosilicate glass tubes. For radiolabeling, 1.0 mCi Na[^125I] was added to the Iodogen-coated borosilicate glass tube, which also contained 0.05 ml of Tris-iodination buffer (25 mM Tris-HCL pH 7.5, 0.4M NaCl and 1 mM EDTA) to form a ^125I solution. The ^125I solution was activated by incubating for 6 minutes at room temperature. The activated ^125I solution was transferred to a tube containing 0.05 to 0.1 ml recombinant human IL-12 (31.5 µg) in Tris-iodination buffer. The resulting mixture of the activated ^125I solution and the recombinant human IL-12 was incubated for 6 minutes at room temperature. At the end of the incubation, 0.05 ml of Iodogen stop buffer (10 mg/ml tyrosine, 10% glycerol in Dulbecco's phosphate buffered saline (PBS), pH 7.40) was added and reacted for 3 minutes. The resulting mixture was then diluted with 1.0 ml Tris-iodination buffer containing 0.25% bovine serum albumin (BSA), and applied to a Bio-Gel P10DG desalting column for chromatography. The column was eluted with Tris-iodination buffer containing 0.25% BSA. […] The TCA precipitable radioactivity (10% TCA final concentration) was typically in excess of 95% of the total radioactivity. […]

The target of experiment [2] is T1, human IL-12 receptor beta1 and beta2 …. The experiment can be described thus: equilibrium binding of 125I-labeled IL-12 to COS cells cotransfected with beta1 and beta2 plasmids, Scatchard analysis, high affinity site. How it is done: as §1

B1: recombinant human IL-12 (Interleukin-12) (ligand)
chain 1: IWELKKDVYVVELDWYPDAPGEMVVLTCDTPEEDGITWTLDQSSEVLGSGKTLTIQVKEFGDAGQYTCHKGGEVLSHSLLLLHKKEDGIWSTDILKDQKEPKNKTFLRCEAKNYSGRFTCWWLTTISTDLTFSVKSSRGSSDPQGVTCGAATLSAERVRGDNKEYEYSVECQEDSACPAAEESLPIEVMVDAVHKLKYENYTSSFFIRDIIKPDPPKNLQLKPLKNSRQVEVSWEYPDTWSTPHSYFSLTFCVQVQGKSKREKKDRVFTDKTSATVICRKNASISVRAQDRYYSSSWSEWASVPCS
chain 2: RNLPVATPDPGMFPCLHHSQNLLRAVSNMLQKARQTLEFYPCTSEEIDHEDITKDKTSTVEACLPLELTKNESCLNSRETSFITNGSCLASRKTSFMMALCLSSIYEDLKMYQVEFKTMNAKLLMDPKRQIFLDQNMLAVIDELMQALNFNSETVPQKSSLEEPDFYKTKIKLCILLHAFRIRAVTIDRVMSYLNAS
For B1, the Kd came to 5 nM in experiment [1] and 0.05 nM in experiment [2].
